Measurements from PMC5853461, “Transcription factor CitERF71 activates the terpene synthase gene CitTPS16 involved in the synthesis of E-geraniol in sweet orange fruit”.

B1: GCC-box-like sequence 1 (dsDNA)
DNA 1: GAATGGGCGATAGAGCTCATACTTACCCGCCTCTCTTCACATTCAAACTTCTAATATTA
DNA 2: TAATATTAGAAGTTTGAATGTGAAGAGAGGCGGGTAAGTATGAGCTCTATCGCCCATTC
B2: mGCC-box-like sequence 1 (dsDNA)
DNA 1: GAATGGGCGATAGAGCTCATACTTAAAAGCCTCTCTTCACATTCAAACTTCTAATATTA
DNA 2: TAATATTAGAAGTTTGAATGTGAAGAGAGGCTTTTAAGTATGAGCTCTATCGCCCATTC
B3: GCC-box-like sequence 2 (dsDNA)
DNA 1: AATTTACAAAATTATAGAAGTCAAATTACGACGTCGTAAATCTGGCGGGACTTTAATGG
DNA 2: CCATTAAAGTCCCGCCAGATTTACGACGTCGTAATTTGACTTCTATAATTTTGTAAATT
B4: mGCC-box-like sequence 2 (dsDNA)
DNA 1: AATTTACAAAATTATAGAAGTCAAATTACGACGTCGTAAATCTGGCAAAACTTTAATGG
DNA 2: CCATTAAAGTTTTGCCAGATTTACGACGTCGTAATTTGACTTCTATAATTTTGTAAATT

Target: CitERF71 (Citrus sinensis Osbeck (Newhall sweet …, UniProt A0A067HCL9 1-233))
Assay: EMSA; LightShift Chemiluminescent EMSA kit per manufacturer and Nieuwenhuizen et al. 2015; buffer, salt, pH and temperature not stated
Conditions: protein: recombinant; tags: N-terminal 6xHN (His) tag; label: 3' biotin; blunt

Sequence of CitERF71 (Citrus sinensis Osbeck (A0A067HCL9 entry or part of it): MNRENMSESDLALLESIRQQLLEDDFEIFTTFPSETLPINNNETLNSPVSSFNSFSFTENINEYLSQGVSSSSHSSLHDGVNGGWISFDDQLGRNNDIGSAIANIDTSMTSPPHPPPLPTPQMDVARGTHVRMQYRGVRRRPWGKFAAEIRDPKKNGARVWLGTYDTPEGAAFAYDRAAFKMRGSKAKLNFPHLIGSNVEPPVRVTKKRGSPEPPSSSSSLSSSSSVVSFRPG

Binder | binding result
B1 | binds
B2 | no binding
B3 | binds
B4 | no binding
